Data: the supplement of paper PMC10724198
± gives the standard deviation of the averaged measurements.

Key:
Saccharomyces cerevisiae [1] = assay: protein stability index of tFT-peptide fusion (C-terminal peptide) (PSI (0-1 scale)); higher = more stable (slower turnover); details: genetic background: wild type; temperature: 30 C
Saccharomyces cerevisiae [2] = assay: as above
Procedure: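 MPS profiling in S. cerevisiae of the tFT-X12 degron library: putative degron peptides plus stable controls, 12 aa, fused to the C-terminus of a sfGFP-mCherry timer. Cells are FACS-sorted into 8 mCherry/sfGFP bins and deep-sequenced. PSI runs from 0 (unstable) to 1 (stable). Backgrounds are wild type, das1Δ and doa10Δ at 30 °C, and wild type, das1Δ, cdc34-1 and cdc53-1 at 37 °C; 2-3 technical replicates each.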

[3] = genetic background: cdc34-1, temperature: 37 C
[4] = genetic background: cdc53-1, temperature: 37 C
[5] = genetic background: das1 deletion, temperature: 30 C
[6] = genetic background: das1 deletion, temperature: 37 C
[7] = genetic background: doa10 deletion, temperature: 30 C
[8] = genetic background: wild type, temperature: 30 C
[9] = genetic background: wild type, temperature: 37 C
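Further: PSI is a weighted mean of sequencing reads over stability bins, variants kept only with over 10 reads, mCherry proximal and sfGFP distal, peptide attached via GGGS linker.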

Sequence | protein stability index (Saccharomyces cerevisiae [1]) | protein stability index (Saccharomyces cerevisiae [2]; [3]) | protein stability index (Saccharomyces cerevisiae [2]; [4]) | protein stability index (Saccharomyces cerevisiae [2]; [5]) | protein stability index (Saccharomyces cerevisiae [2]; [6]) | protein stability index (Saccharomyces cerevisiae [2]; [7]) | protein stability index (Saccharomyces cerevisiae [2]; [8]) | protein stability index (Saccharomyces cerevisiae [2]; [9])
SLFFCIPIHSVF | 0.461 ± 0.014 | 0.606 ± 0.046 | 0.585 ± 0.0079 | 0.491 ± 0.014 | 0.5855 ± 0.0036 | 0.398 ± 0.012 | 0.423 ± 0.021 | 0.524 ± 0.013
EKKKKKRKNKIK | – | 0.691 ± 0.0098 | 0.727 ± 0.037 | 0.655 ± 0.024 | 0.7221 ± 0.0038 | 0.649 ± 0.016 | 0.652 ± 0.025 | 0.661 ± 0.028
LFFFLVWSLSVF | 0.0314 ± 0.029 | 0.0262 ± 0.0035 | 0.0512 ± 0.0066 | 0.0353 ± 0.011 | 0.0635 ± 0.02 | 0.0187 ± 0.0092 | 0.0205 ± 0.0042 | 0.0395 ± 0.013
PWGVGLACLFLL | 0.126 ± 0.025 | 0.469 ± 0.017 | 0.683 ± 0.016 | 0.585 ± 0.017 | 0.736 ± 0.022 | 0.0882 ± 0.025 | 0.096 ± 0.017 | 0.1134 ± 0.00036
GTIFLIRVLLFG | 0.284 ± 0.028 | 0.154 ± 0.0049 | 0.284 ± 0.026 | 0.222 ± 0.024 | 0.387 ± 0.029 | 0.171 ± 0.015 | 0.213 ± 0.023 | 0.357 ± 0.069
RLCLLLCCRLWL | 0.4961 ± 0.0041 | 0.53 ± 0.023 | 0.58 ± 0.013 | 0.442 ± 0.022 | 0.565 ± 0.012 | 0.461 ± 0.022 | 0.428 ± 0.011 | 0.55 ± 0.01
VRLLLIFRLLVI | 0.299 ± 0.09 | 0.463 ± 0.0077 | 0.539 ± 0.013 | 0.417 ± 0.039 | 0.551 ± 0.0066 | 0.2909 ± 0.0022 | 0.267 ± 0.038 | 0.447 ± 0.02
FVGVLVLCVCRC | 0.278 ± 0.024 | 0.0544 ± 0.0064 | 0.137 ± 0.015 | 0.17 ± 0.029 | 0.247 ± 0.021 | 0.116 ± 0.025 | 0.155 ± 0.025 | 0.21 ± 0.014
HRPRPLLKLLAS | 0.145 ± 0.011 | – | 0.596 ± 0.098 | 0.585 ± 0.083 | 0.67983 ± 0.0006 | 0.0522 ± 0.045 | 0.0779 ± 0.044 | 0.0284 ± 0.018
FVFCGVVFLFLL | 0.351 ± 0.086 | 0.399 ± 0.033 | 0.467 ± 0.0057 | 0.395 ± 0.058 | 0.519 ± 0.018 | 0.347 ± 0.0093 | 0.326 ± 0.018 | 0.462 ± 0.0044
DFRGVSVIRHQV | 0.179 ± 0.047 | 0.615 ± 0.065 | 0.7327 ± 0.0024 | 0.64 ± 0.015 | 0.7366 ± 0.0065 | 0.126 ± 0.0098 | 0.147 ± 0.018 | 0.308 ± 0.052
LPHIFFCLFSLL | 0.289 ± 0.026 | 0.582 ± 0.045 | 0.611 ± 0.047 | 0.562 ± 0.05 | 0.657 ± 0.066 | 0.203 ± 0.01 | 0.215 ± 0.024 | 0.317 ± 0.015
VSLIFCLFFLSC | 0.442 ± 0.013 | 0.424 ± 0.0047 | 0.502 ± 0.044 | 0.402 ± 0.018 | 0.52 ± 0.0063 | 0.395 ± 0.024 | 0.404 ± 0.027 | 0.492 ± 0.027
PLPSRLRRFVPV | – | 0.656 ± 0.05 | 0.701 ± 0.0078 | 0.595 ± 0.0072 | 0.7072 ± 0.0018 | 0.613 ± 0.018 | 0.62 ± 0.014 | 0.6801 ± 0.0039
GRGVRLRVRLLL | 0.292 ± 0.1 | 0.664 ± 0.023 | 0.73 ± 0.031 | 0.606 ± 0.022 | 0.7 ± 0.019 | 0.185 ± 0.014 | 0.217 ± 0.006 | 0.43 ± 0.04
RICACHGIRFIP | 0.444 ± 0.064 | 0.7111 ± 0.0033 | 0.742 ± 0.0023 | 0.637 ± 0.04 | 0.774 ± 0.051 | 0.3558 ± 0.0018 | 0.392 ± 0.032 | 0.617 ± 0.016
LASLSRPFRAKF | 0.792 ± 0.0093 | 0.9674 ± 0.0085 | 0.949 ± 0.026 | 0.843 ± 0.011 | 0.914 ± 0.013 | 0.828 ± 0.029 | 0.8573 ± 0.0074 | 0.916 ± 0.012
VAVYVGVGVSLG | 0.423 ± 0.0046 | 0.454 ± 0.045 | 0.523 ± 0.048 | 0.311 ± 0.03 | 0.546 ± 0.004 | 0.2819 ± 0.0021 | 0.33 ± 0.017 | 0.511 ± 0.039
